Measurements: publication PMC9209732, “Transcriptional Regulation of ING5 and its Suppressive Effects on Gastric Cancer”

Target: YY1 (UniProt P25490 1-414)
Assay: EMSA; EMSA: 5-10 ug protein, 50 nM probe, 5% non-denaturing PAGE, streptavidin-HRP/ECL; buffer, salt, pH and temperature not stated
Conditions: protein: recombinant; tags: His (GST also stated in Results); label: 3' biotin; blunt

YY1, sequence (P25490 whole entry): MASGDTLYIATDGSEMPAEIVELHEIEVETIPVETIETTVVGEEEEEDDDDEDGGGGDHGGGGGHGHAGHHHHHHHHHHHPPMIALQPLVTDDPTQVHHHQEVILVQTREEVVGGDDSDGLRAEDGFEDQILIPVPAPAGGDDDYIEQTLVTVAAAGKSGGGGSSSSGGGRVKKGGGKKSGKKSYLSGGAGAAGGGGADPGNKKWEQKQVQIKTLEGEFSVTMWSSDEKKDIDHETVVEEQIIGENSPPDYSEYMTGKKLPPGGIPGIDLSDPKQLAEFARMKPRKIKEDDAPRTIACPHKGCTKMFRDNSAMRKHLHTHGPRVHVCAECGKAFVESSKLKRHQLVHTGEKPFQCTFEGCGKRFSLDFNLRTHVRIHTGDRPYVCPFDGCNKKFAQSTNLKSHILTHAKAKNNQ

B1: ING5 promoter probe (-48 to 25) (dsDNA)
DNA 1: CGCTGGCACCGCCCCGCCCCCGCCTCCCGCGGCACCGCCCGCCCGCGCAGACCCCGAGCGCGGCCGCGGACGAA
DNA 2: TTCGTCCGCGGCCGCGCTCGGGGTCTGCGCGGGCGGGCGGTGCCGCGGGAGGCGGGGGCGGGGCGGTGCCAGCG
binding result: binds
